test: soluble on expression in E. coli; label from the status in PepcDB or PDB records

**Q.** Which “soluble on expression in E. coli” value does the source give for “MAHHHHHHMENIENIENIEKIHLTDDGGVIKTILRKGNEGEENVPKKGNEVTVHYIGKLESDGSIFDSSRQRDVPFKFHLGNGEVIKGWDICVASMKKNEKCLVRLDSKYGYGKEGCGETIPGNSVLIFEIELLSFKEAKKNIYDYTDEEKIQAAFELKDEGNEFFKKNEINEAIAKYKEALDYFMHTDEWEDELLEKKKNIQIICNLNLSTCYNKNKDYPNAIEHASKVLKLDKNNVKGLYKLGVANMNFGFLEEAKINLYKAASLNPKNLDIRNSYELCIAKLKEARKKDQITFG” here?
**A.** The value was “soluble”.

**Q.** For “MAKAAKRFRTPSTTRVLYVRHAHAHGRQTWGGDDNKRPLDKKGRRQAEMLVPMLLPFKPTAIYSAVPDRCQATALPLADELGLDVSVNRLFGDDAWETDPEACKKRFTDVVAQGGVPMIVGQGDIIPEMIKWFSENGTLPIDEKIKAKKGSVWVLSFHDGVFTGADYLEHHHHHH”, which “soluble on expression in E. coli” value is on record?
**A.** The value was “not soluble”.

**Q.** Which “soluble on expression in E. coli” value does the source give for “GLVAHSDLDERAIEALKEFNEDGALAVLQQFKDSDLSHVQNKSAFLCGVMKTYRQREKQGTKVADSSKGPDEAKIKALLERTGYTLDVTTGQRKYGGPPPDSVYSGQQPSVGTEIFVGKIPRDLFEDELVPLFEKAGPIWDLRLMMDPLTGLNRGYAFVTFCTKEAAQEAVKLYNNHEIRSGKHIGVCISVANNRLFVGSIPKSKTKEQILEEFSKVTEGLTDVILYHQPDDKKKNRGFCFLEYEDHKTAAQARRRLMSGKVKVWGNVGTVEWADPIEDPDPEVMAKVKVLFVRNLANTVTEEILEKAFSQFGKLERVKKLKDYAFIHFDERDGAVKAMEEMNGKDLEGENIEIVFAKPPDQKRKERKAQRQAAKNQMYDDYYYYGPPHMPPPTRGRGRGGRGGYGYPPDYYGYEDYYDYYGYDYHNYRGGYEDPYYGYEDFQVGARGRGGRGARGAAPSRGRGAAPPRGRAGYSQRGGPGSARGVRGARGGAQQQRGRGQGKGVEAGPDLLQ” here?
**A.** The value was “soluble”.

**Q.** For “MSTKEKKTKKPHNVKSSVVPPKKWKTKKKDKKGTGKLRKTASNASLKKHGSTHKIKKPEDITSDGCPLLLTASDTCANIYAEQLSAPNNLSAKTSTPHKSIEAALTPVAFSPPPATQATQAMDAPATTKTAVKPTKWKAEDVAVAYIQKLDPGVIRAEYIEACAATKVNIDKDCQLWKKNLQMNQADNYPILDSTIVKNPAQPDSYVNMSSVIVPHCRYPILMAQMPKRGFEEEFWRAAFNESVVIMYVLMGTEDEKNDFFPTTMGAYVYYGAMFVNIRKVEKMDEERTRYTIEVLPNGFSNSVMMNVYVHTGWEASGVPVRYANTTRSVVDVMNFVKTSSGTEKMLVVSKNGCGRAGFFLSLGAAFCCLNDNSEPRIGEIVKAIRSQRPNAVDSIKQYASIYLCFVYYIKKKITIPEGMQQKFDDLKKGIEAIIREDLSIMY”, which “soluble on expression in E. coli” value is on record?
**A.** The value was “not soluble”.

**Q.** Which “soluble on expression in E. coli” value does the source give for “MNKEERAKRQSKIRNFSIIAHIDHGKSTLADRILEKTNALTQREMKAQLLDSMDLERERGITIKLNAIQLNYKAKDGEEYILHLIDTPGHVDFTYEVSRSLAACEGAILVVDAAQGIEAQTLANVYLALDNNLEILPVINKIDLPSADPERVRQEVEDVIGLDASEAVLASAKAGIGIEEILEQIVEKVPAPTGDSEEPLQCMIFDSLYDPYRGVIAYIRVVNGTVKVGDKVRMMATGKEFEVTEVGVFTPKTTQRDELTVGDVGFLAASIKNVGDTRVGDTITHAKRPAAEPLAGYRKLNPMVFCGLYPIDSARYNDLRDALEKLELNDSALEFEPETSQALGFGFRCGFLGLLHMEILQERIEREFKIDLITTAPSVIYKVFLTNGEDMIVDNPSNMPDPQTIDRVEEPFVKAAIMVPNDYVGAVMEICQGKRGTFIDMQYLDETRVTLTYEIPLSEIVYDFFDQLKSNTKGYASFDYELIGYKPSKLVKMDILLNSEQVDALSFIVHRDSAYDRGKVIVEKLKELIPRQQFEVPIQATIGNKVVARSTIKAMRKNVLAKCYGGDISRKRKLLDKQKEGKKRMKSVGSVEVPQEAFMAVLKMDDN” here?
**A.** The value was “soluble”.

**Q.** With “MNSNRTPSQKVLARQEKIKAVALELFLTKGYQETSLSDIIKLSGGSYSNIYDGFKSKEGLFFEILDDICKKHFHLIYSKTQEIKNGTLKEILTSFGLAFIEIFNQPEAVAFGKIIYSQVYDKDRHLANWIENNQQNFSYNILMGFFKQQNNSYMKKNAEKLAVLFCTMLKEPYHHLNVLINAPLKNKKEQKEHVEFVVNVFLNGINSSKA” as the sequence, how does the “soluble on expression in E. coli” value read?
**A.** The value was “soluble”.

**Q.** Which “soluble on expression in E. coli” value does the source give for “MGSDKIHHHHHHMILRKKKSLNAGPINGTGEGVAHSKRWYVALVRMHHEKKVSEHLDKMGIENFVPVQQELHQWSDRRKLVTSVLLPMMVFVHADPKERMEVLSFSTVSRYMVMRGESSPAVIPDEQMARFRFMLDYSEESISMNSSPLARGEKVRVIKGPLTGLVGELVNVDGRSKIAVRLNMLGCACVDMPVGYVEPIMAAV” here?
**A.** Its value is “not soluble”.

**Q.** For “MDDDFVRALNKFNSKFSFRNKKNSLNEVLQKNKRNDKKEDINCNKLKNDLELQYIHSSNNKICQKFLTLPLNKKSDKLKDHSDKIILPVSILKTLEKGNYKNEVEFPYTFSIKNVQNNYITHACVLEFSSNEGIIFVSDNIKENLGLNKPQNSSIARVLITYCILSKCDFIKLDSLNNNINDIKYMKNLLENELSLNYSTLTLGDYIHINHLNFYISELEPDNAVSLINTDINVDICERNNMEGYKNVNILGDHKDIYEIIKIDIPINSSIQKGMNKYKFVLNNNTLDLLKKGKIELAIHLQSQMMLHSLNLFISLPPLDSVSEVLHHLYIDDYSTDEIIINREVIRNILKLHFACMIKEQPYNKNNDNHHANDKEDNVHNGTCNDHHEDDKIEKQNYDDSFLEYIFEHFFPHIIYIGVHNYMDTLVDYSICLKLNGEKNMSTKKDDSNNKCVNTSGFIHNNINLLKNININTQDIDNNNNDDTYITCDNCLKNILKYNIHMHKIHCLKNFTLCNICKKVLKKNEKDNHIHCDICNEGMHKNKKKTHELIWHTQIKCVCDKLLFRKQFIFHQNLFCPKKIIYCTFCNIFTQSNINIYNEEFILATFFDKYDNIKTNNSTVNKSIKYYYNMLFTYFHFFLKYIKNTEHEKYCGSKSINCTICKQIIYRNEYLLHLNTLHHFNKIESFKIINDNADLSQLMN”, which “soluble on expression in E. coli” value is on record?
**A.** Its value is “not soluble”.

**Q.** For “MGSDKIHHHHHHMTNKYEEFKTYLKKIGSGEFTGKSLTREETKSALMLMLKEEASAAQIGGFMIAHRIRRPIPEELAGMIDAYIELGPKIQSPSNQRQPIFFGMPFDGRKKTAPIYPLTTLLLLTQKQPVILHGGSRMPVKYGVTHNELFQALGINLTGLSIEQLQSFFNHNYLALIHQPDHFPLAENLIPYRDQIGKRPPLASMELIWTCHQGSHLHISGYVHSPTEERHWKTLELMGEQNVITIKGLEGGIDLSISRSSTIGQYKNQHGTRTVFHPKDYECSGKDIEWSDITEWKKFALQALNGEGPLTKALEWNAGIYFFYAGISSDIKEGINKAKEVINSGFALKQLEKLIHWSDENIDS”, which “soluble on expression in E. coli” value is on record?
**A.** Its value is “not soluble”.

**Q.** Which “soluble on expression in E. coli” value does the source give for “SKLLDKDGKVFAEVGTERREYIEYKDIPETLKNAILTTEDARFYEHDGIDPIRLGGAVVANVTDGFGAEGASTLSQQIIKMSYLDYTNKTLARKAQEAWLALQLEEKYSKNDILEIYVNKVYMSDRVHGMQTAAEHYFGKNVKDLTLAETALLAGMPQSPNNYNPYDHP” here?
**A.** Its value is “not soluble”.

**Q.** Which “soluble on expression in E. coli” value does the source give for “MKVNPDFFPLTQMAQRFVDQLAQCRRLGLTVLEASEHHVLIELPYSTELIGYPDTGVIHGGVITTLMDTACGSAVVSAIFQKYQSLEISPTLDLRVDYMKPAQPHKSVYGFAECYKLSSNIAFTRAIAYQDSIDDPIAHAVGSFMRISPEMVGDAFRQALIGLEHHHHHH” here?
**A.** Its value is “soluble”.

**Q.** For “MIYIVGIGPGSRDYVTEKAFDTVETSDFVLGSKRSLEIFEINGERVELTVNLKNELYEFLKNYKNSDSKKKVSILSTGDPCFSGLLKTIFSFDFIEQDDFEVVPGI”, which “soluble on expression in E. coli” value is on record?
**A.** Its value is “not soluble”.

**Q.** For “MTCLSRDWATAQRLVEWALASTRCECFNVDSNFMAGLCLVENPTKQHYSFEVRKQVVDRFNAGQSKMDLAREFGLSSDQLVSSWVRAWRAGGDEALRPKPKGRPKGSASSKPLTEEDRLRREVEKLRAENAYLKKLRDLRNQRRS”, which “soluble on expression in E. coli” value is on record?
**A.** Its value is “not soluble”.

**Q.** For “MGSSHHHHHHSSGRENLYFQGMVSVTFEPVGKKVEDEPDTILEIARRNGVLIRSDCGGKGVCGKCKVVVVDYRGSLSDITDHERKHLIEEEISKGYRLACQARVEEGRATIFIPPESRLERRKVAGLTIEKEVELNPAVRKVYAEIQPPSIEDQLPDYDRLTRALGDFSLDLETLSEMPKLLREAEWRVTATFWNGRLIDLEKGDVSDRCYGVAVDVGSSKIICHLVDLKSGETIATGYSDNPQVAYGEDIVSRITYASKSAENRKRLQTVVVETVNQIIAELCNESGVDLRHVYEVMIVGNSVMHHLFFGIEPRFIGVSPFTPAVRRGVSFPAEDVGLRINRKGYVSSLPLVAGFVGADAVANIAITGIHKAEEISMVIDIGTNTEIVIGNREKLGVCSAPSGPAFEGAHITFGMKAISGAIDSVRIERDEVIYTTIDNAKAKGLCGTGLIDLIAELYRNGIINRNGKFVKDHSRIIVDGVPKFVVAKAEETEFGKPITVSEKDINELLMAKGAIKSGWMILSERLGIEPDKIERIYLAGSFGRHINVENAKVIGLLPDIPSEKITFAGDTAVGGAKMALKSVRVRDEMEDVVSRLNYVELSVEKNFYSVFVRAIPI”, which “soluble on expression in E. coli” value is on record?
**A.** Its value is “soluble”.

**Q.** With “MSLTVERVSAPTPAAFVDAANAAFRNGAVLSVQARCEVEYNGRTSGYLGDGDRLLVAKPDGTFLVHQPTGHKPVNWMPGGGTVEARTSQGDAVLLARRSNPTERVETRLHEVYGVTRFDAEDGATYEESGTEAEMHEYIEANPDALEAGLRIVEHERETKYGFIDFYAVDGDGTPVVIEVKRIQATLNHFDQLKRYVDRYAETNDDVRGMLVAPSASERVTRALRDNGLEFVALAEFGLDAKGATEAKLTDFEGHHHHHH” as the sequence, how does the “soluble on expression in E. coli” value read?
**A.** Its value is “soluble”.

**Q.** For “SLYENDYVKKTQVWPSGGQMTVKNLSANYIDGGNTVLENISFSLSPGQRVGLLGRTGSGKSTLLSAFLRLLSTQGDIQIDGVSWQTIPLEKWRKAFGVIPQKVFIFSGSIRKNLDPYGKWSDEELLKVTEEVGLKLIIDQFPGQLDFVLLDGGCVLSHGHKQLVCLARSVLSKAKILLLDEPSAHLDPITFQIIRKTLKHAFADCTVILSEARLEAMLECDRFLVIEDNTVRQYDSIQKLVNEKSDFKQAISHSD”, which “soluble on expression in E. coli” value is on record?
**A.** The value was “soluble”.

**Q.** Which “soluble on expression in E. coli” value does the source give for “MGSDKIHHHHHHMEKRYQIFISSTFIDLKDERQAALKAILEIDHMPAGMELFSATDDSAWQLIQDVIDSSDYYILIVGGRYGSLDEAGLSYTEKEYDYALLTKKPVIPLLHENPDNLPRDKTETDSNAWKKLQDFRKKVQKKHTCVYWRNADDLKAKVIVGLTSAIKRHPAVGWVRADKVPTETALAEVLSLKNKITELEKEAALLRDKPPSGTEFLAQGNDKYEIHLSFKSRGKFSIFSHDEDKKYNASINLTWNAIFAAVAPSMINEASAHTLRQAFTDFFKRESLKAFQSQKRFENYELVDFSFHKDEIETCIVQLRALGLIKENDRKRSVSDTSTYWTLTPYGNTLMVQLRAIKREPLEDEDLDGTAVES” here?
**A.** The value was “not soluble”.

**Q.** Which “soluble on expression in E. coli” value does the source give for “MGSDKIHHHHHHMETLRILHTNDLHSHFEHFPKIGRYLKKAQADNSVDEVYTFDAGDFMDRSHPLTDATEGQANIKLMNGFKYTAVTIGNNEGISNPHWVLEHLFDHADFPTVLANLREEDESMPNWAIGHKILTTKKNTRIALIGLTAAYPMTYGPNHWHVKMLGSTMDKELAKINGQYDMLILITHIGLKMDRWLAKNYPQIDLIVGGHSHDLIVQGEKVDHTWITQTGKWGNYVGDIHVELEDHHVTKIVPNTVATASMPEEPEDESVIKGYYEKGKQLLSERKVAKLPEKFADDKIAAVQVSLDAIADFAKTDLAILSSGLFLTPFKSGILTQFDLQNALPHPMHVVRSTLKGSDLWRLVMEIEKNRHYLDHFPLQGMSFRGKIFGQMYYKGIKVDMRKRIVYVNGQEINPDSEYRIACLDHYVLVPFFPTLAIVGENEFLFPQFLREVVGDYLAKKYPLPARSEIND” here?
**A.** Its value is “not soluble”.

— the DeepSol protein solubility set
